Substitutions are numbered along the chain they refer to. “Also recorded” adds a separate entry of the source. Ends that are not written are not given here.
T1: TF/heparanase complex (Homo sapiens, UniProt Q9Y251)
T1 construct: endogenous in cells; host or cells: ICR mice in vivo (TF endogenous)
T1 sequence (Q9Y251 36-543): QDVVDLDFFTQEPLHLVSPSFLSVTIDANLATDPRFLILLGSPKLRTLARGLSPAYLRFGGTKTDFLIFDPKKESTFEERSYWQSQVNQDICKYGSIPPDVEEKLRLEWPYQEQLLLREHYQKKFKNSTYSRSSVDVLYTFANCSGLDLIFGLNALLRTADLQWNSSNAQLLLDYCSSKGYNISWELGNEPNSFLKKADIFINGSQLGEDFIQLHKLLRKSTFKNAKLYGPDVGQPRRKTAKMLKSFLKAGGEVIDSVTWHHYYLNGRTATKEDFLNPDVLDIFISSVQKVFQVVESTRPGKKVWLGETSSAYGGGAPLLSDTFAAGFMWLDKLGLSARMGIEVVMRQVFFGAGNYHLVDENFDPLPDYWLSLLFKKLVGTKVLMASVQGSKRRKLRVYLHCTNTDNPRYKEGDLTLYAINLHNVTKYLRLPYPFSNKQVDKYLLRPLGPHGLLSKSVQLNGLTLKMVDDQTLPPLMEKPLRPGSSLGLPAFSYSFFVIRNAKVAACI

B1: double mutant inactive heparanase: heparanase mutated at Glu225 and Glu343, critical for the enzyme catalytic activity (protein)
chain: T1 sequence (Q9Y251 36-543) with E190A, E308A
B2: TFPI-2: recombinant human tissue factor pathway inhibitor 2, purchased from R&D (protein, UniProt P48307 23-235, looked up)
Tissue factor pathway …: DAAQEPTGNNAEICLLPLDYGPCRALLLRYYYDRYTQSCRQFLYGGCEGNANNFYTWEACDDACWRIEKVPKVCRLQVSVDDQCEGSTEKYFFNLSSMTCEKFFSGGCHRNRIENRFPDEATCMGFCAPKKIPSFCYSPKDEGLCSANVTRYYFNPRYRTCDAFTYTGCGGNDNNFVSREDCKRACAKALKKKKKMPKLRFASRIRKIRKKQF

Columns and labels:
[1] = target: T2, TF/heparanase complex (Homo sapiens, UniProt P13726+Q9Y251, DEL111-157/INS109GSGSG); test: Inhibition of heparanase procoagulant activity in the factor Xa generation assay; assay type: biochemical; conditions: for procoagulant effect induced by heparanase (Xa level): peptide 25 μg/ml (15 μM), heparanase 1.5 μM, FIG. 26; for procoagulant effect of heparanase on Xa level: co-addition of peptide with heparanase, FIG. 23A
T2 construct: comprised of the 8 kDa and 50 kDa heparanase heterodimer (8+50); purchased American Diagnostica (Stanford, Conn., USA) for TF and factor VIIa; host or cells: heparanase GS3 made in house: conditioned medium of baculovirus-infected cells
Description: FIG. 23A. Factor Xa levels was evaluated by chromogenic substrate in an in-vitro assay including purified proteins of tissue factor (TF), factor VIIa, factor X and assay buffer.
FIG. 26. Factor Xa levels was evaluated by chromogenic substrate in an in-vitro assay including lipidated TF (0.004 μM), factor VIIa (0.04 μM) and factor X (1.4 μM). The Xa level was studied by a chromogenic substrate (1 mM).
(§1) Following preliminary experiments to quantify the appropriate protein doses, we performed a basic experiment of factor Xa generation in the following manner: the concentrations mentioned are the final concentrations. Lipidated recombinant human TF (0.004 μM, […]), recombinant human factor VIIa (0.04 μM) and plasma-derived human factor X (1.4 μM) were incubated in 50 μL assay buffer (0.06 M Tris, 0.04 M NaCl, 2 mM CaCl 2, 0.04% bovine serum albumin, pH 8.4) to a total volume of 125 μL in a 96-well sterile plate. After 15 min at 37° C., chromogenic substrate for factor Xa was added (1 mM). After 20 min, the reaction was stopped with 50 μL of glacial acetic acid and the level of factor Xa generation was determined using an enzyme-linked immunosorbent assay (ELISA) plate reader (Power Wave XS, BIO-TEK, VT, USA). In order to visualize the increased production of factor Xa by western blotting, the experiment was repeated with 7 μM factor X. After 15 min at 37° C., half of the reaction volume was subjected to blotting using monoclonal anti-human factor X/Xa heavy chain antibody.
The coagulation assay included the peptides and the following components: lipidated TF (0.004 μM), factor VIIa (0.04 μM) and factor X (1.4 μM). The Xa level was studied by a chromogenic substrate (1 mM).

[2] = target: T2, TF/heparanase complex; test: Inhibition of heparanase procoagulant activity in the thrombin generation assay; assay type: biochemical; conditions: for heparanase procoagulant activity (thrombin generation): inhibitor added to the thrombin generation assay with heparanase
Description: FIG. 6B. Heparanase procoagulant activity is attenuated by TFPI and TFPI-2. Same as FIG. 1D, except that recombinant human TFPI and TFPI-2 were added prior to heparanase addition. The mean value±SD of three independent experiments is shown.
FIG. 6C. Heparanase procoagulant activity is abrogated by an anti-Xa derivative.
In order to verify that factor Xa produced in the presence of heparanase is active, thrombin generation, the next step in the coagulation cascade, was examined. The experiment described above (FIG. 1A) was repeated and plasma-derived human prothrombin (222 μM) was added following the addition of factor X. After 15 minutes at 37° C., chromogenic substrate for thrombin was added (1 mM). In the presence of heparanase, thrombine generation was increased (FIG. 1D).

[3] = target: T1, TF/heparanase complex; test: TF/heparanase inhibitory peptides in heparanase-injected ICR mice (TAT by ELISA); assay type: in vivo; conditions: peptide intra-peritoneal half an hour after heparanase, blood after 4 hours
Description: FIG. 23B. Heparanase was injected intra-peritoneal to ICR mice. Inhibitory peptides to TF/heparanase complex (number 5, 6, 21) were injected intra-peritoneal half an hour after heparanase. Four hours later the blood was drawn and Thrombin-antithrombin (TAT) level was measured by ELISA.
Methods: ICR mice, heparanase knock-out mice and heparanase over-expression mice were studied. Sepsis was induced by intra-peritoneal injection of lipopolysaccharides (LPS). Inhibitory peptides to TF/heparanase complex (number 11, 22, 5, 6, 7, 12, and 21 [SEQ IDs: 1-7]) were injected intra-peritoneal half an hour after heparanase or LPS. After 4 hours blood was obtained via sub-mandibular plexus puncture followed by mice sacrificing. Levels of thrombin-antithrombin (TAT), D-Dimer and IL-6 were tested using ELISA. Western blot to plasma factor VII and immunostaining of fibrinogen in lung, kidney and spleen were performed.

[4] = Water solubility of the peptides; assay type: physicochemical
[5] = target: T3, TF-factor VIIa complex (Homo sapiens, UniProt P13726); test: Activated factor X generation assay with purified TF, factor VIIa and factor X (chromogenic substrate); assay type: biochemical; conditions: overnight serum-free medium of 293 HEK cells over-expressing heparanase species, compared to mock
T3 construct: purchased American Diagnostica (Stanford, Conn., USA)
Description: FIG. 1A. Recombinant human TF, recombinant human factor VIIa, and plasma-derived human factor X were incubated (15 min, 37° C.) in a total assay volume of 125 μL. Chromogenic substrate for the detection of factor Xa was then added (final concentration 1 mM). Recombinant active heparanase GS3 (Hepa) was added prior to the addition of the coagulation factors. The mean value±SD of three independent experiments in shown. […]
FIG. 1C. […] The mean value of two experiments is shown. Note a 2-fold increase in coagulation activity when the medium contained heparanase or its derivatives.
as §1
The factor Xa generation assay was performed as described in the Design and Methods section with increasing doses of recombinant human heparanase (GS3) added prior to the addition of the coagulation factors. […] It should be noted that factor X is composed of two polypeptide chains, a heavy chain with a molecular weight of 38 kDa and a light chain with a molecular weight of 18 kDa joined by a dipeptide Arg-Arg. The factor VIIa-TF complex activates the conversion of factor X to factor Xa by cleaving the heavy chain to a 33 kDa peptide. […] In order to exclude contamination of the heparanase preparation during the routine procedure of purification described in the Design and Methods section, the inventors tested the effect of overnight serum-free without phenol medium of 293 HEK cells over-expressing heparanase and its derivatives compared to mock. The proteins were further purified from the culture medium and analyzed. Similar quantities of proteins were obtained from the culture media.

T2 sequence (P13726 33-295, stated change not applied, one chain of several): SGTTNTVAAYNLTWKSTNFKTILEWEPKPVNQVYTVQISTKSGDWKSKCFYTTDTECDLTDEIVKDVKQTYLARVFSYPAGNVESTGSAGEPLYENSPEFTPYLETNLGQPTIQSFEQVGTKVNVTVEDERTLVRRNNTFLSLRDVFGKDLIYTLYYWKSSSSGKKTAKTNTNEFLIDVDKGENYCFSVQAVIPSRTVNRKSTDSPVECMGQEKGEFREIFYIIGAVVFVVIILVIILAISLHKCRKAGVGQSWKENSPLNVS
T3 sequence (P13726 33-295): as the sequence (P13726 33-295, stated change not applied, one chain of several) above
T3 sequence (P08709 61-212 partner limits assumed): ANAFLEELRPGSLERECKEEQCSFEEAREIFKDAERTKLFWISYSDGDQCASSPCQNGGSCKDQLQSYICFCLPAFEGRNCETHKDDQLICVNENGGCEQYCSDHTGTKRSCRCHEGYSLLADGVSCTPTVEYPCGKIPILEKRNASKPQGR
T3 sequence (P08709 213-466 partner limits assumed): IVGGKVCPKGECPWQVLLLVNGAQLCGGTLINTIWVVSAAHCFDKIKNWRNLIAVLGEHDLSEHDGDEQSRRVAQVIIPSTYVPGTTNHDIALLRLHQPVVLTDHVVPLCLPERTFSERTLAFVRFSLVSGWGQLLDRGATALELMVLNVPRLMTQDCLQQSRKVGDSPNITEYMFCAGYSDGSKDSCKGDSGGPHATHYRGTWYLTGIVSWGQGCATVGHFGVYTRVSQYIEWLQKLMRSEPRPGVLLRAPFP

Molecule	procoagulant effect induced by heparanase (Xa level) [1]	procoagulant effect of heparanase on Xa level [1]	also measured
Ac-AEICLLPLDYGPCR (cysteine pairing not given here) [Peptide 6-Ac]	inhibited the procoagulant effect induced by heparanase		
TFPI: recombinant human tissue factor pathway inhibitor [reference compound]			heparanase procoagulant activity (thrombin generation) [2]: attenuated the effect; also recorded: mildly attenuated thrombin generation but failed to abolish the procoagulant effect of heparanase
NNAEICLLPLDYGP [Peptide 7]	inhibited the procoagulant effect induced by heparanase	abolished the procoagulant effect of heparanase	
AEICLLPLDYGPCR (cysteine pairing not given here) [Peptide 6]	inhibited the procoagulant effect induced by heparanase	abolished the procoagulant effect of heparanase	procoagulant effect of heparanase (TAT level) [3]: completely abolished the procoagulant effect of heparanase
RYYYDRYTQSCRQF [Peptide 12]		abolished the procoagulant effect of heparanase	
Ac-Ile Cys Leu Leu Pro Leu Asp Tyr Gly Pro Cys Arg Ala Leu (Ac-ICLLPLDYGPCRAL; cysteine pairing not given here) [Peptide 5-Ac]	inhibited the procoagulant effect induced by heparanase		
O=C(NC[C@H]1CN(c2ccc(N3CCOCC3=O)cc2)C(=O)O1)c1ccc(Cl)s1 [Rivaroxaban, reference compound]			heparanase procoagulant activity (thrombin generation) [2]: abolished the effect of heparanase; heparanase procoagulant activity (thrombin generation) ([2]; listed as rivaroxaban): abolished the procoagulant effect of heparanase
NANNFYTWEAC [Peptide 21]		abolished the procoagulant effect of heparanase	procoagulant effect of heparanase (TAT level) [3]: markedly decreased heparanase effect
ICLLPLDYGPCRAL (cysteine pairing not given here) [Peptide 5]	inhibited the procoagulant effect induced by heparanase	abolished the procoagulant effect of heparanase	procoagulant effect of heparanase (TAT level) [3]: markedly decreased heparanase effect
Ac-NNAEICLLPLDYGP [Peptide 7-Ac]			water solubility compared to non-acetylated counterpart [4]: more water soluble than their corresponding non acetylated counterparts
B1			increase in factor Xa levels [5]: increased factor Xa levels
B2			heparanase procoagulant activity (thrombin generation) [2]: attenuated the effect; also recorded: mildly attenuated thrombin generation but failed to abolish the procoagulant effect of heparanase; inhibitory potency compared to TFPI in the presence of heparanase ([2]; thrombin generation with heparanase): more effective inhibitor than TFPI; also recorded: more potent than TFPI
